From the Human Domainome abundance scans (Beltran et al. 2025) come the findings set out here.

± gives the uncertainty stated by the source.

A short description of this data set: abundance fitness (aPCA) (normalised: wild type 0, dead -1); higher = more abundant; growth selection in yeast, the domain comes from the species named. Particulars: Homo sapiens.
Regarding “SAFB-like transcription modulator E59W, Q9NWH9”, the abundance fitness is -1.02 ± 0.089.

In the case of “SAFB-like transcription modulator E67A, Q9NWH9”, the abundance fitness is -0.197 ± 0.046.

As for “SAFB-like transcription modulator E67C, Q9NWH9”, the abundance fitness was -0.252 ± 0.087.

On to “SAFB-like transcription modulator E67D, Q9NWH9”, for which the abundance fitness is -0.107 ± 0.086.

Regarding “SAFB-like transcription modulator E67F, Q9NWH9”, the abundance fitness is -0.041 ± 0.078.

With “SAFB-like transcription modulator E67G, Q9NWH9”, the abundance fitness is -0.198 ± 0.049.

Take “SAFB-like transcription modulator E67H, Q9NWH9”: the abundance fitness was -0.107 ± 0.15.

For “SAFB-like transcription modulator E67I, Q9NWH9”, the abundance fitness came to 0.017 ± 0.08.

For the substance “SAFB-like transcription modulator E67K, Q9NWH9”, the abundance fitness is -0.225 ± 0.082.

For the substance “SAFB-like transcription modulator E67L, Q9NWH9”, the abundance fitness was -0.134 ± 0.035.

With “SAFB-like transcription modulator E67M, Q9NWH9”, the abundance fitness is -0.308 ± 0.092.

Consider “SAFB-like transcription modulator E67N, Q9NWH9”, for which the abundance fitness was -0.002 ± 0.069.

On to “SAFB-like transcription modulator E67P, Q9NWH9”, for which the abundance fitness was -0.155 ± 0.089.

“SAFB-like transcription modulator E67Q, Q9NWH9”: the abundance fitness is -0.35 ± 0.1.

“SAFB-like transcription modulator E67S, Q9NWH9”: the abundance fitness was -0.084 ± 0.04.

Regarding “SAFB-like transcription modulator E67T, Q9NWH9”, the abundance fitness is -0.099 ± 0.049.

On to “SAFB-like transcription modulator E67V, Q9NWH9”, for which the abundance fitness is -0.042 ± 0.037.

Take “SAFB-like transcription modulator E67W, Q9NWH9”: the abundance fitness was -0.27 ± 0.037.

For “SAFB-like transcription modulator E67Y, Q9NWH9”, the abundance fitness is -0.019 ± 0.11.

Regarding “SAFB-like transcription modulator G19A, Q9NWH9”, the abundance fitness was -0.101 ± 0.09.

For “SAFB-like transcription modulator G19C, Q9NWH9”, the abundance fitness is -0.391 ± 0.19.

As for “SAFB-like transcription modulator G19D, Q9NWH9”, the abundance fitness is -0.027 ± 0.078.

Regarding “SAFB-like transcription modulator G19E, Q9NWH9”, the abundance fitness is -0.014 ± 0.086.

With “SAFB-like transcription modulator G19I, Q9NWH9”, the abundance fitness is 0.503 ± 0.23.

As for “SAFB-like transcription modulator G19R, Q9NWH9”, the abundance fitness is -0.757 ± 0.2.

As for “SAFB-like transcription modulator G19S, Q9NWH9”, the abundance fitness is -0.003 ± 0.064.

For “SAFB-like transcription modulator G19T, Q9NWH9”, the abundance fitness was -0.406 ± 0.34.

“SAFB-like transcription modulator G19V, Q9NWH9” returned an abundance fitness of 0.053 ± 0.072.

In the case of “SAFB-like transcription modulator G19W, Q9NWH9”, the abundance fitness was -0.72 ± 0.35.

Regarding “SAFB-like transcription modulator G19Y, Q9NWH9”, the abundance fitness is 0.212 ± 0.24.

For the substance “SAFB-like transcription modulator G43C, Q9NWH9”, the abundance fitness is -0.464 ± 0.19.

Consider “SAFB-like transcription modulator G43D, Q9NWH9”, for which the abundance fitness was -0.712 ± 0.2.

Consider “SAFB-like transcription modulator G43V, Q9NWH9”, for which the abundance fitness is -0.601 ± 0.26.

Regarding “SAFB-like transcription modulator G60A, Q9NWH9”, the abundance fitness was -0.317 ± 0.047.

In the case of “SAFB-like transcription modulator G60C, Q9NWH9”, the abundance fitness was -0.258 ± 0.036.

Turning to “SAFB-like transcription modulator G60D, Q9NWH9”, the abundance fitness is -0.171 ± 0.062.

As for “SAFB-like transcription modulator G60E, Q9NWH9”, the abundance fitness was -0.347 ± 0.05.

Take “SAFB-like transcription modulator G60F, Q9NWH9”: the abundance fitness was -0.584 ± 0.06.

On to “SAFB-like transcription modulator G60I, Q9NWH9”, for which the abundance fitness is -0.792 ± 0.08.

On to “SAFB-like transcription modulator G60K, Q9NWH9”, for which the abundance fitness is -0.162 ± 0.052.

Turning to “SAFB-like transcription modulator G60L, Q9NWH9”, the abundance fitness was -0.396 ± 0.036.

Consider “SAFB-like transcription modulator G60M, Q9NWH9”, for which the abundance fitness was -0.238 ± 0.038.

On to “SAFB-like transcription modulator G60N, Q9NWH9”, for which the abundance fitness was -0.108 ± 0.04.

As for “SAFB-like transcription modulator G60Q, Q9NWH9”, the abundance fitness is -0.181 ± 0.042.

With “SAFB-like transcription modulator G60R, Q9NWH9”, the abundance fitness is -0.238 ± 0.033.

As to “SAFB-like transcription modulator G60S, Q9NWH9”, the abundance fitness was -0.308 ± 0.041.

With “SAFB-like transcription modulator G60V, Q9NWH9”, the abundance fitness is -0.515 ± 0.04.

Consider “SAFB-like transcription modulator G60W, Q9NWH9”, for which the abundance fitness was -0.658 ± 0.047.

With “SAFB-like transcription modulator G60Y, Q9NWH9”, the abundance fitness was -0.591 ± 0.07.

For the substance “SAFB-like transcription modulator G61A, Q9NWH9”, the abundance fitness was -0.158 ± 0.049.

“SAFB-like transcription modulator G61C, Q9NWH9”: the abundance fitness was -0.164 ± 0.064.

As for “SAFB-like transcription modulator G61D, Q9NWH9”, the abundance fitness is -0.229 ± 0.056.

“SAFB-like transcription modulator G61E, Q9NWH9”: the abundance fitness was -0.303 ± 0.064.

Regarding “SAFB-like transcription modulator G61F, Q9NWH9”, the abundance fitness is -0.474 ± 0.072.

In the case of “SAFB-like transcription modulator G61H, Q9NWH9”, the abundance fitness was -0.16 ± 0.049.

In the case of “SAFB-like transcription modulator G61I, Q9NWH9”, the abundance fitness is -0.415 ± 0.098.

Consider “SAFB-like transcription modulator G61K, Q9NWH9”, for which the abundance fitness was -0.18 ± 0.06.

For the substance “SAFB-like transcription modulator G61L, Q9NWH9”, the abundance fitness was -0.098 ± 0.043.

For “SAFB-like transcription modulator G61M, Q9NWH9”, the abundance fitness is -0.135 ± 0.06.

Turning to “SAFB-like transcription modulator G61N, Q9NWH9”, the abundance fitness is -0.208 ± 0.083.

As to “SAFB-like transcription modulator G61P, Q9NWH9”, the abundance fitness was -0.31 ± 0.062.

With “SAFB-like transcription modulator G61Q, Q9NWH9”, the abundance fitness was -0.141 ± 0.066.

As to “SAFB-like transcription modulator G61R, Q9NWH9”, the abundance fitness is -0.227 ± 0.042.

On to “SAFB-like transcription modulator G61S, Q9NWH9”, for which the abundance fitness was -0.23 ± 0.049.

On to “SAFB-like transcription modulator G61T, Q9NWH9”, for which the abundance fitness was -0.296 ± 0.046.

In the case of “SAFB-like transcription modulator G61V, Q9NWH9”, the abundance fitness is -0.39 ± 0.046.

In the case of “SAFB-like transcription modulator G61W, Q9NWH9”, the abundance fitness is -0.537 ± 0.059.

Regarding “SAFB-like transcription modulator G61Y, Q9NWH9”, the abundance fitness is -0.259 ± 0.082.

On to “SAFB-like transcription modulator I22A, Q9NWH9”, for which the abundance fitness was -0.65 ± 0.078.

Take “SAFB-like transcription modulator I22C, Q9NWH9”: the abundance fitness is -0.347 ± 0.05.

As for “SAFB-like transcription modulator I22D, Q9NWH9”, the abundance fitness is -0.464 ± 0.087.

On to “SAFB-like transcription modulator I22E, Q9NWH9”, for which the abundance fitness was -0.57 ± 0.11.

For “SAFB-like transcription modulator I22F, Q9NWH9”, the abundance fitness was -0.372 ± 0.087.

Regarding “SAFB-like transcription modulator I22G, Q9NWH9”, the abundance fitness was -0.562 ± 0.044.

Consider “SAFB-like transcription modulator I22H, Q9NWH9”, for which the abundance fitness is -0.471 ± 0.12.

For “SAFB-like transcription modulator I22K, Q9NWH9”, the abundance fitness was -0.576 ± 0.072.

In the case of “SAFB-like transcription modulator I22L, Q9NWH9”, the abundance fitness is -0.115 ± 0.061.

As for “SAFB-like transcription modulator I22N, Q9NWH9”, the abundance fitness was -0.659 ± 0.11.

With “SAFB-like transcription modulator I22P, Q9NWH9”, the abundance fitness is -0.736 ± 0.089.

As for “SAFB-like transcription modulator I22Q, Q9NWH9”, the abundance fitness is -0.606 ± 0.093.

On to “SAFB-like transcription modulator I22R, Q9NWH9”, for which the abundance fitness was -0.743 ± 0.048.

On to “SAFB-like transcription modulator I22S, Q9NWH9”, for which the abundance fitness is -0.521 ± 0.065.

Take “SAFB-like transcription modulator I22T, Q9NWH9”: the abundance fitness is -0.542 ± 0.1.

In the case of “SAFB-like transcription modulator I22V, Q9NWH9”, the abundance fitness was -0.132 ± 0.037.

Take “SAFB-like transcription modulator I22W, Q9NWH9”: the abundance fitness is -0.94 ± 0.085.

“SAFB-like transcription modulator I22Y, Q9NWH9”: the abundance fitness was -0.531 ± 0.085.

With “SAFB-like transcription modulator I28A, Q9NWH9”, the abundance fitness came to 0.055 ± 0.1.

Take “SAFB-like transcription modulator I28E, Q9NWH9”: the abundance fitness is -0.1 ± 0.11.

In the case of “SAFB-like transcription modulator I28F, Q9NWH9”, the abundance fitness was -0.417 ± 0.17.

As to “SAFB-like transcription modulator I28G, Q9NWH9”, the abundance fitness is -0.106 ± 0.064.

Turning to “SAFB-like transcription modulator I28K, Q9NWH9”, the abundance fitness is -0.22 ± 0.22.
